The numbers were not newly measured in patent US20040096894A1, “Crystal structures of P- selectin, P- and E-selectin complexes, and uses thereof” (priority 2000, published 2004), which cites them from elsewhere.

This data set deals with T1, full-length neutrophil PSGL-1 (Homo sapiens, UniProt Q14242).
T1 construct: to full-length neutrophil PSGL-1; host or cells: neutrophils
T1 sequence (Q14242 42-412): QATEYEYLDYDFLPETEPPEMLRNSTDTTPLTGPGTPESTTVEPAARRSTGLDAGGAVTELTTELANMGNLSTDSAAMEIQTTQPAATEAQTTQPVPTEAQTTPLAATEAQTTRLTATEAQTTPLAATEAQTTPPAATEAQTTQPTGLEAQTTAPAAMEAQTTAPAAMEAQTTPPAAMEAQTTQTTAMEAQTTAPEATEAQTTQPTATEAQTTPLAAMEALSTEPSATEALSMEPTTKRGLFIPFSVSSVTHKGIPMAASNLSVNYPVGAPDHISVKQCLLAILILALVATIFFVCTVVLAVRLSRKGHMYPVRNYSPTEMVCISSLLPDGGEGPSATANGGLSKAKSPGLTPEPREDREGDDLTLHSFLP
The conditions noted are these: previously determined values (Mehta et al., 1998); read-out: KD for binding to full-length neutrophil PSGL-1.

B1: soluble P-selectin: Soluble P-selectin of the literature study (Mehta et al., 1998) (protein, UniProt P16109 42-771, looked up)
extracellular domain: WTYHYSTKAYSWNISRKYCQNRYTDLVAIQNKNEIDYLNKVLPYYSSYYWIGIRKNNKTWTWVGTKKALTNEAENWADNEPNNKRNNEDCVEIYIKSPSAPGKWNDEHCLKKKHALCYTASCQDMSCSKQGECLETIGNYTCSCYPGFYGPECEYVRECGELELPQHVLMNCSHPLGNFSFNSQCSFHCTDGYQVNGPSKLECLASGIWTNKPPQCLAAQCPPLKIPERGNMTCLHSAKAFQHQSSCSFSCEEGFALVGPEVVQCTASGVWTAPAPVCKAVQCQHLEAPSEGTMDCVHPLTAFAYGSSCKFECQPGYRVRGLDMLRCIDSGHWSAPLPTCEAISCEPLESPVHGSMDCSPSLRAFQYDTNCSFRCAEGFMLRGADIVRCDNLGQWTAPAPVCQALQCQDLPVPNEARVNCSHPFGAFRYQSVCSFTCNEGLLLVGASVLQCLATGNWNSVPPECQAIPCTPLLSPQNGTMTCVQPLGSSSYKSTCQFICDEGYSLSGPERLDCTRSGRWTDSPPMCEAIKCPELFAPEQGSLDCSDTRGEFNVGSTCHFSCDNGFKLEGPNNVECTTSGRWSATPPTCKGIASLPTPGVQCPALTTPGQGTMYCRHHPGTFGFNTTCYFGCNAGFTLIGDSTLSCRPSGQWTAVTPACRAVKCSELHVNKPIAMNCSNLWGNFSYGSICSFHCLEGQLLNGSAQTACQENGHWSTTVPTCQAGPLTIQEA
modifications: extracellular domain
For the molecule B1, the Kd (usually the equilibrium constant for the complex coming apart) was 322 nM.
